This is an account of results in the FLAb antibody collection (doi:10.7554/elife.23156).

A word on the Kd: it is the concentration at which binding is half-saturated.

The labels stand for the following.
B1: scFv; the commonest letter at each place (parent)
chain 1: EVKLDETGGGLVQPGRPMKLSCVASGFTFSDYWMNWVRQSPEKGLEWVAQIRNKPYNYETYYSDSVKGRFTISRDDSKSSVYLQMNNLRVEDMGIYYCTGSYYGMDYWGQGTSVTVS
chain 2: DVVMTQTPLSLPVSLGDQASISCRSSQSLVHSNGNTYLRWYLQKPGQSPKVLIYKVSNRFSGVPDRFSGSGSGTDFTLKISRVEAEDLGVYFCSQSTHVPWTFGGGTKLEIK

The variants in the data set “fluorescein” derive from B1. Put plainly: Kd (Tite-Seq). The note with it: with fluorescein; format: scFv 4-4-20, heavy + light.
Data set [1] covers variants of B1. Kind of data set: yeast surface expression (ratio to wild type); higher = more expressed. The note with it: format: scFv 4-4-20, heavy + light.

Consider chain 1 S30D V37P, for which the Kd with fluorescein was not below 10000 nM. Further, the yeast surface expression in data set [1] is 0.55.
Taken in the same sequence, the figures for chain 1 S30N M34I were 2.93 nM and 0.954.
Taken in the same sequence, the figures for chain 1 S30C M34V were 8.27 nM and 0.65.
Consider chain 1 S30E D31N, for which the equilibrium dissociation constant (Kd) with fluorescein was determined as 0.504 nM. Further, the yeast surface expression in data set [1] was 0.934.
The corresponding values for chain 1 S30E D31S are 2.39 nM and 0.987.
Consider chain 1 M105Y G109S, for which the Kd with fluorescein stood at 50.7 nM. The yeast surface expression in data set [1] came to 0.936.
Taken in the same sequence, the figures for chain 1 N35L W36I were not below 10000 nM and 0.256.
Taken in the same sequence, the figures for chain 1 N35L W36R were not below 10000 nM and 0.352.
The corresponding values for chain 1 S30E M34T W36T are not below 10000 nM and 0.353.
For chain 1 N35V V37Y, the Kd in the data set with fluorescein is not below 10000 nM. In addition, the yeast surface expression in data set [1] was 0.727.
The corresponding values for chain 1 S30L Y32H are 2230 nM and 0.8.
Taken in the same sequence, the figures for chain 1 N35C V37M were not below 10000 nM and 0.689.
With chain 1 N35C V37L, the Kd in the data set with fluorescein was not below 10000 nM. For the same variant, the yeast surface expression in data set [1] was 0.527.
The corresponding values for chain 1 N35C V37K are not below 10000 nM and 0.542.
The corresponding values for chain 1 S30P N35L are not below 10000 nM and 0.652.
The corresponding values for chain 1 S30P N35G are 4.68 nM and 1.19.
As for chain 1 S30P N35V, the Kd with fluorescein is not below 10000 nM. The yeast surface expression in data set [1] is 0.636.
Taken in the same sequence, the figures for chain 1 N35S W36Y were not below 10000 nM and 0.787.
As to chain 1 S30F W36D, the Kd with fluorescein was not below 10000 nM. In addition, the yeast surface expression in data set [1] was found to be 0.448.
Regarding chain 1 S30I, in the data set with fluorescein, the Kd stood at 2.15 nM. In addition, the yeast surface expression in data set [1] stood at 0.787.
The corresponding values for chain 1 S30D are 2.05 nM and 0.919.
For the variant chain 1 S30H, the Kd with fluorescein worked out at 3.17 nM. Moreover, the yeast surface expression in data set [1] worked out at 0.839.
The corresponding values for chain 1 S30C are 1.28 nM and 0.906.
The corresponding values for chain 1 S30N are 1.22 nM and 0.889.
The corresponding values for chain 1 S30P are 1.01 nM and 1.06.
chain 1 S30L: the Kd with fluorescein is 6.38 nM. Also, the yeast surface expression in data set [1] came out at 0.801.
Taken in the same sequence, the figures for chain 1 S30G were 0.67 nM and 1.12.
Turning to chain 1 S30R, the Kd with fluorescein is 0.964 nM. For the same variant, the yeast surface expression in data set [1] amounted to 0.995.
Taken in the same sequence, the figures for chain 1 S30A were 0.803 nM and 1.08.
The corresponding values for chain 1 S30M are 1.75 nM and 0.855.
Take chain 1 S30Q: in the data set with fluorescein, the Kd is 0.938 nM. Also, in data set [1], the yeast surface expression turned out to be 1.12.
For chain 1 S30E, the Kd in the data set with fluorescein worked out at 0.962 nM. Besides, the yeast surface expression in data set [1] turned out to be 0.948.
In the case of chain 1 S30F, the Kd in the data set with fluorescein was 2.05 nM. Further, the yeast surface expression in data set [1] was determined as 0.828.
The corresponding values for chain 1 S30K are 1.22 nM and 1.12.
As for chain 1 N35E W36E, the Kd with fluorescein was not below 10000 nM. Further, in data set [1], the yeast surface expression was 1.23.
The corresponding values for chain 1 S30M D31S are 2.65 nM and 0.671.
Turning to chain 1 S30M D31F, the Kd in the data set with fluorescein came out at 5660 nM. Further, the yeast surface expression in data set [1] was determined as 0.611.
As to chain 1 S30H N35E, the Kd with fluorescein was not below 10000 nM. The yeast surface expression in data set [1] was determined as 0.504.
The corresponding values for chain 1 S30H N35D are not below 10000 nM and 0.828.
As for chain 1 S30E N35E, the Kd with fluorescein is not below 10000 nM. Besides, in data set [1], the yeast surface expression was 0.894.
For the variant chain 1 S30G W33V, the Kd with fluorescein was not below 10000 nM. The yeast surface expression in data set [1] turned out to be 1.
Taken in the same sequence, the figures for chain 1 S30R W33F M34V were 105 nM and 0.767.
Taken in the same sequence, the figures for chain 1 N35V W36M were not below 10000 nM and 0.488.
chain 1 S30K Y32S M34V: the Kd in the data set with fluorescein is not below 10000 nM. Moreover, the yeast surface expression in data set [1] amounted to 0.837.
Consider chain 1 S30G M34R, for which the Kd with fluorescein stood at 1.99 nM.
Consider chain 1 S30G M34I, for which the Kd with fluorescein was determined as 2.39 nM. Besides, the yeast surface expression in data set [1] stood at 0.889.
As to chain 1 S30G M34H, the Kd in the data set with fluorescein amounted to 5660 nM. Also, the yeast surface expression in data set [1] was 0.659.
For chain 1 S30K N35I, the Kd with fluorescein was not below 10000 nM. Moreover, in data set [1], the yeast surface expression turned out to be 0.879.
Regarding chain 1 S30K N35G, the Kd with fluorescein was 16.2 nM. In data set [1], the yeast surface expression was determined as 1.03.
Taken in the same sequence, the figures for chain 1 S30C D31F were 5960 nM and 0.592.
Taken in the same sequence, the figures for chain 1 N35D W36V were not below 10000 nM and 0.668.
The corresponding values for chain 1 S30A V37Y are 39.1 nM and 1.1.
With chain 1 S30A V37R, the Kd with fluorescein is 8.71 nM. Moreover, the yeast surface expression in data set [1] was determined as 1.16.
With chain 1 S30R W36G, in the data set with fluorescein, the Kd is not below 10000 nM. The yeast surface expression in data set [1] came out at 0.171.
For chain 1 S30Q D31H Y32N, the Kd with fluorescein was not below 10000 nM. Besides, the yeast surface expression in data set [1] turned out to be 0.857.
Turning to chain 1 N35W V37Q, in the data set with fluorescein, the Kd is not below 10000 nM. The yeast surface expression in data set [1] was 0.372.
Taken in the same sequence, the figures for chain 1 N35W V37G were 21 nM and 1.18.
In the case of chain 1 S30H Y32R V37Q, the Kd with fluorescein came to 18.9 nM. Moreover, the yeast surface expression in data set [1] is 1.99.
